Reference: PMC7263513 (bioRxiv, 2020)
Substitutions are numbered along the chain they refer to.

B1: C130 (antibody, V domains shown)
VH: QVQLVQSGAEVKKPGASVKVSCKASGYTFTNYYMHWVRQAPGQGLEWMGIINPSGGSTGYAQKFQGRVTMTRDTSTSTVYMELSSLRSEDTAVYYCARSRPTPDWYFDLWGRGTLVTVSS
VL: SYELTQPPSVSVAPGKTARITCGGNNIGSKSVHWYQQKPGQAPVLVIYYDSDRPSGIPERFSGSNSGNTATLTISRVEAGDEADYYCQVWDSSSDHPGVVFGGGTKLTVL
B2: C134 (antibody, V domains shown)
VH: EVQLLESGGGLVQPGGSLRLSCAASGFTFSNYAMSWVRQAPGKGLEWVSAISGSDGSTYYAGSVKGRFTISRDNSKNTLYLQMNSLRAEDTAVYYCAKDPLITGPTYQYFHYWGQGTLVTVSS
VL: B1 VL with D84E, Y86H, H96R
B3: C139 (antibody, V domains shown)
VH: EVQLVESGGGVVQPGRSLRLSCAASGFTFSSYAMHWVRQAPGKGLEWVAVISYDGSNKYSADSVKGRFTISRDNSKNTLYLQMNSLRAEDTAVYYCAKGGAYSYYYYMDVWGKGTTVTVSS
VL: not shown
B4: C115 (antibody, V domains shown)
VH: QVQLVESGGGLIKPGRSLRLSCTASGFTFGDYAMTWFRQAPGKGLEWVGFIRSKAYGGTTGYAASVKYRFTISRDDSKSIAYLQMDSLKTEDTAVYYCTRWDGWSQHDYWGQGTLVTVSS
VL: DIVMTQSPLSLSVTPGEPASISCRSSQSLLHSNGNNYFDWYLQKPGQSPQLLIYLGSNRASGVPDRFSGSGSGTDFTLKISRVEAEDVGVYYCMQVLQIPYTFGQGTKLEIK
B5: C126 (antibody, V domains shown)
VH: QVQLQESGPGLVKPSETLSLSCAVSGGSIGSYFWSWIRQPPGKGLEWIGYLHYSGSTNYNPSLKSRVTISVDTSKNQFSLKLSSVTAADTAVYYCARLQWLRGAFDIWGQGTMVTVSS
VL: NFMLTQPHSVSESPGKTVTISCTGSSGSIASNYVQWYQQRPGSAPTTVINEDNQRPSGVPDRFSGSIDSSSNSASLTISGLKTEDEADYYCQSYDSSNLVFGGGTKLTVL
B6: C141 (antibody, V domains shown)
VH: not shown
VL: B5 VL with N50Y, L99W
B7: C138 (antibody, V domains shown)
VH: EVQLVESGGGLVQPGGSLRLSCAASGFTFSTYWMSWVRQPPGKGLEWVANIKQDGSEKYYVDSVKGRFTISRDNAKNSLYLQMNSLRADDTAVYYCAGGTWLRSSFDYWGQGTLVTVSS
VL: B5 VL with N50Y, L99W
B8: C118 (antibody, V domains shown)
VH: QVQLVESGGGVVQPGRSLRLSCAASGFTFSNYAMHWVRQAPGKGLEWVAVISYDGSNKYYADSVKGRFTISRDNSKNTLYLQMNSLRAEDTAIYYCASGYTGYDYFVRGDYYGLDVWGQGTTVTVSS
VL: QPVLTQSPSASASLGASVKLTCTLSSGHSSYAIAWHQQQPEKGPRYLMKLNTDGSHSKGDGIPDRFSGSSSGAERYLTISSLQSEDEADYYCQTWGTGILVFGGGTKLTVL
B9: C128 (antibody, V domains shown)
VH: EVQLLESGGGLVQPGGSLRLSCAASGFTFSTYAMSWVRQAPGKGLEWVSTITGSGRDTYYADSVKGRFTISRDNSKNTLFLQLNSLRAEDAAVYSCANHPLASGDDYYHYYMDVWGKGTTVTVSS
VL: EIVLTQSPGTLSLSPGERATLSCRASQSVNSRQLAWYQQKPGQAPRLLIYGASSRATGIPERFSGSGSGTDFTLTISRLESEDFAVYHCQQYGSSRALTFGGGTKVEIK
B10: C122 (antibody, V domains shown)
VH: EVQLVESGGGLIQPGGSLRLSCAASGLTVSSNYMSWVRQAPGKGLEWVSVLYSGGSSFYADSVKGRFTISRDNSKNTLYLQMNSLRAEDTAVYYCARESGDTTMAFDYWGQGTLVTVSS
VL: DIQLTQSPSFLSASVGDRVTITCRASQGISSYLAWYQQKPGKAPKLLIYAASTLQSGVPSRFSGSGSGTEFTLTISSLQPEDFATYYCQQLNSDSYTFGQGTKLEIK
B11: C123 (antibody, V domains shown)
VH: EVQLVESGGGLIQPGGSLRLSCAASGVTVSRNYMSWVRQAPGKGLEWVSVIYSGGSTYYADSVKGRFTISRDNSKNTLYLQMNSLRAEDTAVYYCARDLSAAFDIWGQGTMVTVSS
VL: B10 VL with D94Y, S95P, Y96P, T97A, K103R
B12: C140 (antibody, V domains shown)
VH: EVQLVESGGGLVQPGGSLRLSCAASGVTVSSNYMSWVRQAPGKGLEWVSLIYSGGSTFYADSVKGRFTISRDNSENTLYLQMNTLRAEDTAVYYCARDLYYYGMDVWGQGTTVTVSS
VL: B10 VL with D94Y
B13: C124 (antibody, V domains shown)
VH: EVQLVESGGGLVQPGGSLRLSCAASGFTFSGYSMNWVRQAPGKGPEWVSYISRSSSTIYYADSVKGRFTISRDNAKNSLYLQMNSLRDEDTAVYYCAREGARVGATYDTYYFDYWGQGTLVTVSS
VL: EIVLTQSPATLSLSPGERATLSCRASQSFSSYLAWYQQKPGQAPRLLIYDASNRATGIPARFSGSGSGTDFTLTISSLEPEDFAVYYCQQRNNWPPEWTFGQGTKVEIK
B14: C116 (antibody, V domains shown)
VH: QVQLVESGGGVVQPGRSLRLSCAASGFTYSTYAMHWVRQAPGKGLEWVAFISYDGSNKYYADSVKGRFTISRDNSKNTLYLQMNSLRAEDTAVYYCARDFYHNWFDPWGQGTLVTVSS
VL: NFMLTQPHSVSESPGKTVTISCTGSSGSIASNYVQWYQQRPGSAPTTVIYEDNQRPSGVPDRFSGSIDRSSNSASLTISGLKTEDEADYYCQSYDSGNHWVVFGGGTRLTVL
B15: C120 (antibody, V domains shown)
VH: EVQLVESGGGLIQPGGSLRLSCAASGFTVSSNYMTWVRQAPGKGLEWVSLIYPGGSTYYADSVKGRFTISRDNSKNTLYLQMNSLRAEDTAVYYCAREGMGMAAAGTWGQGTLVTVSS
VL: AIRMTQSPSSLSASVGDTVTITCQASQDISKYLNWYQQKPGKAPKLLIYDASNLETGVPSRFSGSGSGTDFTFTISSLQPEDIATYYCQQYDNLPQTFGGGTKVEIK
B16: C119 (antibody, V domains shown)
VH: QVQLVQSGAEVKKPGASVKVSCKASGYTFTSYYMHWVRQAPGQGLEWMGIINPSGGSTSYAQKLQGRVTMTRDTSTSTVYMELSSLRSEDTAVYYCARANHETTMDTYYYYYYMDVWGKGTTVTVSS
VL: QSALTQPASVSGSPGQSITISCTGTSSDVGGYKYVSWYQRHPGKAPKLMIYDVSNRPSGVSNRFSGSKSGNTASLTISGLQAEDEADYYCSSYTSSSTSVVFGGGTQLTVL
B17: C131 (antibody, V domains shown)
VH: QVQLVQSGSEVKKPGSSVKVSCKASGGTFSSYAFSWVRQAPGQGLEWMGRIIPILALANYAQKFQGRVTITADKSTSTAYMELSSLRSEDTAVYYCARVNQAVTTPFSMDVWGQGTTVTVSS
VL: not shown
B18: C143 (antibody, V domains shown)
VH: EVQLVESGGGLVQPGGSLRLSCAASGFSVSTKYMTWVRQAPGKGLEWVSVLYSGGSDYYADSVKGRFTISRDNSKNALYLQMNSLRVEDTGVYYCARDSSEVRDHPGHPGRSVGAFDIWGQGTMVTVSS
VL: QSALTQPASVSGSPGQSITISCTGTSNDVGSYTLVSWYQQYPGKAPKLLIFEGTKRSSGISNRFSGSKSGNTASLTISGLQGEDEADYYCCSYAGASTFVFGGGTKLTVL
B19: C117 (antibody, V domains shown)
VH: QVQLVESGGGVVQPGRSLRLSCAASGFTFSTYAMHWVRQAPGEGLEWVAVISYDGSNTYYADSVKGRFTISRDNSKNTLYLQMNSLRAEDTAVYYCARDPIWFGELLSPPFVHFDYWGQGTLVTVSS
VL: QSVLTQPPSVSAAPGQKVTISCSGSSSNIGNNLVSWYQQLPGTAPKLLIYENNKRPSGIPDRFSGSKSGTSATLGITGLQTGDEADYYCGAWDSSLSAGGVYVFGTGTKVTVL
B20: C133 (antibody, V domains shown)
VH: QVQLVESGGGVVQPGRSLRLSCAASGFTFSSYAMHWVRQAPGKGLEWVAVILYDGSNKYYADSVKGRFTISRDNSKNTLYLQMNSLRAEDTAVYYCARDSDVDTSMVTWFDYWGQGTLVTVSS
VL: not shown
B21: C114 (antibody, V domains shown)
VH: QVQLVESGGGLIQPGGSLKLSCVVSGFTVSKNYISWVRQAPGKGLEWVSVIFAGGSTFYADSVKGRFAISRDNSNNTLFLQMNSLRVEDTAIYYCARGDGELFFDQWGQGTLVTVSS
VL: QSVLTQPPSVSGAPGQRVTISCTGTSSNIGAGYDVHWYQQLPGRAPKVLISGNNIRPSEVPDRFSGSRSGTSASLAITSLQPEDEAQYYCQSYDSSLYAVFGGGTKLTVL
B22: C121 (antibody, V domains shown)
VH: not shown
VL: QSALTQPASVSGSPGQSITISCTGTSSDVGSYNLVSWYQQHPGKAPKLMIYEGSKRPSGVSNRFSGSKSGNTASLTISGLQAEDEADYYCCSYAGSSTLVFGGGTKLTVL
B23: C132 (antibody, V domains shown)
VH: QVQLQESGPGLVKPSGTLSLTCAVSGGSISSNNWWSCVRQPPGKGLEWIGEIYHSGSTNYNPSLKSRVTISVDKSKNQFSLKLSSVTAADTAVYYCARGGDTAMGPEYFDYWGQGTLVTVSS
VL: B22 VL with S31G, L34Y, E52D, G53V, K55N, C91S, A94T, G95S, V100L

Target: SARS-CoV-2 receptor binding domain (RBD) (Severe acute respiratory syndrome …, UniProt P0DTC2)
Experiment: cell-based or functional assay

Binder | IC50 of neutralisation of SARS-CoV-2 pseudovirus (293T_(ACE2) cells) [µg/mL]
B1 | > 1
B2 | > 1
B3 | > 1
B4 | 0.198
B5 | > 1
B6 | > 1
B7 | > 1
B8 | 0.104
B9 | 0.101
B10 | 0.0228
B11 | 0.149
B12 | 0.0239
B13 | 0.342
B14 | > 1
B15 | 0.0133
B16 | 0.00912
B17 | 0.0305
B18 | > 1
B19 | 0.348
B20 | > 1
B21 | > 1
B22 | 0.00673
B23 | 0.709
